Assay results published in patent publication US5451411A, “Methods and compositions for the oral delivery of therapeutic agents” (University of Washington, priority 1993, dated 1995).

Type: physicochemical
Method: Beads prepared in accordance with the procedure of Example 1 and containing 50 μg of ^125 I-TGF-β1 in 3.75-7.5 mg (original weight of alginate) were transferred to 15.0 mL polypropylene tubes containing 13.0 mL of PBS or of 0.1 N HCl at 37° C. In some cases, 1% BSA was added to the release media. The polypropylene tubes were gently shaken using a orbital shaker (200 rotations/minutes). At selected times, 100 μL aliquots were taken and counted for radioactivity. Care was taken so that aliquots contained no beads or bead fragments. The cumulative ^125 I-TGF-β1 released from the beads was calculated after correcting for volume changes. After 24 hours, the beads in 0.1 N HCl were transferred to PBS.
Alginate beads containing TGF-β1 and 90 kDa PAA (75:10 w/w in alginate:PAA) were prepared following the procedure of Example 1, and were acid treated for 30 minutes at 37° C. in 0.1 N HCl, as described in Example 2. The beads were then placed in PBS, pH 7.4, and the immunoreactivity of released TGF-β1 was determined by ^125 I radiolabel and ELISA, as described in Example 2. In addition, a growth inhibitory assay (GIA) was used to determine the bioactivity of the TGF-β1. The GIA measures the ability of TGF-β1 to inhibit the growth of mink lung epithelial cells (ATCC #CCL64) (T. Ikedaet al., "Human Transforming Growth Factor Type β2: Production By a Prostatic Adenocarcinoma Cell Line, Purification and Initial Characterization," Biochemistry 26:2406-2410 (1987)). The activity of the growth factor was determined by the inhibitory response of the cells to different concentrations of TGF-β1. Cell viability was based on the enzymatic cleavage by metabolically active cells of a tetrazolium salt into an orange/red formazan product. Prior to the assay cells were trypsinized and plated in a 96-well flat bottomed plate (Costar) at a concentration of 1000 cells/well. After allowing the cells to attach, samples containing the TGF-β1 and a reference standard were diluted to concentrations ranging from 1000 to 1.95 pg/ml and added to the wells. The cells were incubated for four days after which time a 100 μL solution containing 25 μg of sodium 3"-[1-(phenylamino)-carbonyl]-3,4-tetrazolium-bis(4-methoxy-6-nitro) benzene sulfonic acid hydrate (Diagnostic Chemicals, Ltd.) and 5 mM phenazine methosulfate (Aldrich) in media was added to each well. The cells were then incubated for 7 hours and the plates read on a microplate reader at an absorbance of 450 nm with a 630 nm reference filter. The specific activity of a sample was calculated relative to the reference material.

For “TGF-β1: TGF-β1 (1 mg/mL in 5 mM HCl) obtained from Bristol-Myers Squibb (Seattle, WA)”, the “Effect of acid treatment time on dissolution profiles and TGF-β1 release rates” value (0.1 N HCl 37° C. 0.25-24 hr, then PBS pH 7.4) was “little difference” and the “Total release of TGF-β1 (125I radiolabel)” value (acid treated beads 75:10 w/w PAA 90 kDa, PBS pH 7.4) was 90%.
